Measured values from paper PMC5753752.

Assays:
[1] = target: wild-type GLP-1R (UniProt P43220)
[2] = target: GLP-1R-T378SphK (UniProt P43220)
[3] = target: Cy3-labeled GLP-1R-T378SphK (UniProt P43220)

What does the source list for GLP-1 peptide?
GLP-1-induced cAMP accumulation in transfected HEK293T cells, pEC50 [1]: 10.7; GLP-1-induced cAMP accumulation in transfected HEK293T cells, pEC50 [2]: 10.3; GLP-1-induced cAMP accumulation in transfected HEK293T cells, pEC50 [3]: 10.4
